Consider nine substances from patent US7635557B2 (MND Diagnostic Ltd., priority 2003, dated 2009).

Ends that are not written are not given here.

The target of the first assay is T1, Rhinovirus HRV14 3C protease (Human rhinovirus 14, UniProt P03303).
T1 construct: the human rhinovirus 14 3C proteinase, cloned and expressed in E. coli; host or cells: E. coli
T1 sequence (P03303 1538-1719): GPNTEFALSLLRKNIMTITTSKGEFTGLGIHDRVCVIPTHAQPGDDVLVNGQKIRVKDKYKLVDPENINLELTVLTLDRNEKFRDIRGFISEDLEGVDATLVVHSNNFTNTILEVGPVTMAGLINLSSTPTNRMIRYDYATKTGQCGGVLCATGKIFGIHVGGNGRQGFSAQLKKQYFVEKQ
The class given is biochemical.
Details: not given
For the substance RPVVVQGPN, the “best substrate chosen based on the reaction rates” value was “best peptide”.

Another assay concerns the target T2, Human Rhinovirus serotype 1A 3C Protease (Human rhinovirus 1A, UniProt P23008).
T2 construct: is used to clone the 3C Protease into the expression vector pET16-b; made in house; host or cells: E. coli BL21-DE3-pLys-S
T2 sequence (P23008 1515-1697 limits assumed): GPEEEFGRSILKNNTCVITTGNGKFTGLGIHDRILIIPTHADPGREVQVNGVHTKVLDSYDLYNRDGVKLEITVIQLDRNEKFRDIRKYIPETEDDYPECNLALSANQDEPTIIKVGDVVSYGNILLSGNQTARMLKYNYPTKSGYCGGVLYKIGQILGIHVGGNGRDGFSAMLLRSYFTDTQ
The class given is biochemical.
Details: not given
Turning to “MOC-Arg-Ala-Glu-Leu-Gln-Gly-Pro-Tyr-Asp-Lys-DNP-NH2 (RAELQGPYDK; not fully specified; MOC fluorochrome, DNP quencher, C-terminal amide; Human rhinovirus 1A; MOC; fluorochrome) [dimodified decapeptide substrate (7-methoxy coumarin-4-acetic acid fluorochrome and dinitrophenol quencher)]”, the Km worked out at 16.8 µM.

For another assay, the target named is T1, Rhinovirus HRV14 3C protease. Particulars: cited from earlier work.
Take DSLETLFQGPVYK [I]: the Hydrolysis rate is recorded as 355 and the “Relative Hydrolysis rate” value is 1.00.
Consider EAIAEEQGLSDYIT [II], for which the Hydrolysis rate is 8 and the “Relative Hydrolysis rate” value is listed as 0.024.
As for KLFAQTQGPYSGNP [VI], the Hydrolysis rate is reported as 147 and the “Relative Hydrolysis rate” value was 0.44.
Consider KQYFVEKQGQVIAR [VIII], for which the Hydrolysis rate is reported as 1 and the “Relative Hydrolysis rate” value is 0.003.
In the case of SQTVALTEGLGDELEEY, the Hydrolysis rate is on record as 0 and the “Relative Hydrolysis rate” value is 0.0005.
In the case of VPYIERQANDGWFRK [III], the Hydrolysis rate is given as 0 and the “Relative Hydrolysis rate” value was 0.0005.
Turning to YRPVVVQGPNTEF [VII], the Hydrolysis rate is listed as 37 and the “Relative Hydrolysis rate” value was 0.11.
